Test results taken from patent US9573987B2 (priority 2011, dated 2017).
Where two headings read alike, the source gives them in different places. Where a SMILES comes first, the peptide text is derived from it. Side-chain parts run from the residue outwards. [ ]: non-standard residue; d: D form. Phe(4-NH2) = Nc1ccc(C[C@H](N)C(=O)O)cc1; Aib = CC(C)(N)C(=O)O; Sar = CNCC(=O)O

B1: GEEEEEKGPEHLCGAHLVDALYLVCGDRGFYSSSSRAPPPSLPSPSRLPGPSD TPILPQKGIVDECCHRSCDLRRLENYCN (protein, listed as Homo sapiens)
chain: GEEEEEKGPEHLCGAHLVDALYLVCGDRGFYSSSSRAPPPSLPSPSRLPGPSDTPILPQKGIVDECCHRSCDLRRLENYCN
B2: DP22LysC: DP22 cleaved at the lysine of CTP to produce a two chain insulin (protein)
chain 1: APPPSLPSPSRLPGPSDTPILPQEEEEERGPEHLCGAHLVDALYLVCGDRGFYSSSSRAPPPSLPSPSRLPGPSDTPILPQK
chain 2: GIVDECCHRSCDLRRLENYCN
B3: DP22: CTP-E5R-B chain-CTP(K)-A Chain (SEQ ID NO: 91) (protein)
chain: MGSSSSKAPPPSLPSPSRLPGPSDTPILPQEEEEERGPEHLCGAHLVDALYLVCGDRGFYSSSSRAPPPSLPSPSRLPGPSDTPILPQKGIVDECCHRSCDLRRLENYCN
modifications: single chain insulin analog

Tests used:
insulin receptor = settings: background statement; cited from earlier work
[1] = test system: human mammary epithelial cells (HMEC); test: Human mammary epithelial cells proliferation ([14C]-thymidine); type: cell-based; settings: Table 15; read-out: Proliferation HMEC EC50
Experimental: The plate was incubated 4 h at 37° C., 5% CO2 and 90% humidity.

blood glucose = test: Comparative insulin tolerance test / insulin dose titration in mice
[2] = target: T1, insulin subtype B receptor (IR-B) (Homo sapiens, UniProt P06213); test: Insulin subtype B receptor phosphorylation, receptor transfected HEK293 cells; type: cell-based; set-up: expressed in transfected cells; host or cells: HEK293
Experimental: (§1) Color development was stopped 5 min later by adding 0.05 ml 1 N HCl. Absorbance at 450 nm was measured on Titertek Multiscan MCC340 (ThermoFisher, Pittsburgh, Pa.). […]

IGF-1 receptor [3] = target: T2, IGF-1 receptor (Homo sapiens, UniProt P08069); test: IGF-1 receptor phosphorylation assay, receptor transfected HEK293 cells; type: cell-based; set-up: expressed in transfected cells; host or cells: HEK293; settings: Table 15; read-out: Receptor Phosphorylation IGF-IR EC50
Experimental: Color development was stopped 5 min later by adding 0.05 ml 1 N HCl. Absorbance at 450 nm was measured on Titertek Multiscan MCC340 (ThermoFisher, Pittsburgh, Pa.).

[4] = target: T3, insulin subtype A receptor (IR-A) (Homo sapiens, UniProt P06213); test: Insulin subtype A receptor phosphorylation, receptor transfected HEK293 cells; type: cell-based
T3 construct: expressed in transfected cells; host or cells: HEK293
Experimental: as §1

[5] = target: T1, insulin subtype B receptor (IR-B); test: Insulin subtype B receptor binding (competition binding); set-up: expressed in transfected cells; plasma membrane fragments; settings: Table 15
IGF-1 receptor [6] = target: T2, IGF-1 receptor; test: IGF-1 receptor binding assay (competition, scintillation proximity); set-up: expressed in transfected cells; plasma membrane fragments; settings: Table 15; read-out: Receptor Binding IGR-1R EC50
[7] = Table 15, read-out: Receptor Phosphorylation IR-B EC50
[8] = read-out: EC50 values (in nM), phosphorylation at the insulin subtype B receptor, experiment of FIG. 18B
[9] = read-out: EC50 values (in nM), phosphorylation at the insulin subtype A receptor, experiment of FIG. 18A
[10] = Table 15, read-out: Receptor Phosphorylation IR-A- EC50

Row | Molecule | Half Life (hr) 20% Plasma/PBS [h] | EC50 [1] [nM] | EC50 [2, 7] [nM] | EC50 [2, 8] [nM] | EC50 (IGF-1 receptor [3]) [nM] | EC50 [4, 9] [nM] | EC50 [5] [nM] | EC50 (IGF-1 receptor [6]) [nM] | further results
1 | proinsulin: larger linear precursor of insulin with 35-residue connecting peptide |  |  |  |  |  |  |  |  | potency relative to native insulin (insulin receptor): 2% to 9%
2 | CC[C@H](C)[C@H](NC(=O)CN)C(=O)N[C@H](C(=O)N[C@@H](CC(=O)O)C(=O)N[C@@H](CCC(=O)O)C(=O)N[C@@H](C)C(=O)N[C@@H](C)C(=O)N[C@@H](Cc1ccccc1)C(=O)N[C@@H](CCCNC(=N)N)C(=O)N[C@@H](CO)C(=O)N[C@@H](C)C(=O)N[C@@H](CC(=O)O)C(=O)N[C@@H](CC(C)C)C(=O)N[C@@H](CCCNC(=N)N)C(=O)N[C@@H](CCCNC(=N)N)C(=O)N[C@@H](CC(C)C)C(=O)N[C@@H](CCC(=O)O)C(=O)N[C@@H](CCSC)C(=O)N[C@@H](Cc1ccc(NC(=O)CN(C)C(=O)[C@@H](N)CCCCN)cc1)C(=O)N[C@@H](C)C(=O)N[C@@H](C)C(N)=O)C(C)C [K Sar] (H-GIVDEAAFRSADLRRLEM[Phe(4-NH2)]([Sar-Lys])AA-NH2) | 5.9 |  |  |  |  |  |  |  | 
3 | CC[C@H](C)[C@H](NC(=O)CN)C(=O)N[C@H](C(=O)N[C@@H](CC(=O)O)C(=O)N[C@@H](CCC(=O)O)C(=O)N[C@@H](C)C(=O)N[C@@H](C)C(=O)N[C@@H](Cc1ccccc1)C(=O)N[C@@H](CCCNC(=N)N)C(=O)N[C@@H](CO)C(=O)N[C@@H](C)C(=O)N[C@@H](CC(=O)O)C(=O)N[C@@H](CC(C)C)C(=O)N[C@@H](CCCNC(=N)N)C(=O)N[C@@H](CCCNC(=N)N)C(=O)N[C@@H](CC(C)C)C(=O)N[C@@H](CCC(=O)O)C(=O)N[C@@H](CCSC)C(=O)N[C@@H](Cc1ccc(NC(=O)[C@@H]2CCCN2C(=O)C(C)(C)N)cc1)C(=O)N[C@@H](C)C(=O)N[C@@H](C)C(N)=O)C(C)C [AiB Pro] (H-GIVDEAAFRSADLRRLEM[Phe(4-NH2)]([Pro-Aib])AA-NH2) | 2.1 |  |  |  |  |  |  |  | 
4 | CC[C@H](C)[C@H](NC(=O)CN)C(=O)N[C@H](C(=O)N[C@@H](CC(=O)O)C(=O)N[C@@H](CCC(=O)O)C(=O)N[C@@H](C)C(=O)N[C@@H](C)C(=O)N[C@@H](Cc1ccccc1)C(=O)N[C@@H](CCCNC(=N)N)C(=O)N[C@@H](CO)C(=O)N[C@@H](C)C(=O)N[C@@H](CC(=O)O)C(=O)N[C@@H](CC(C)C)C(=O)N[C@@H](CCCNC(=N)N)C(=O)N[C@@H](CCCNC(=N)N)C(=O)N[C@@H](CC(C)C)C(=O)N[C@@H](CCC(=O)O)C(=O)N[C@@H](CCSC)C(=O)N[C@@H](Cc1ccc(NC(=O)[C@H]2CCCN2C(=O)C(C)(C)N)cc1)C(=O)N[C@@H](C)C(=O)N[C@@H](C)C(N)=O)C(C)C [AiB dPro] (H-GIVDEAAFRSADLRRLEM[Phe(4-NH2)]([dP-Aib])AA-NH2) | 2.2 |  |  |  |  |  |  |  | 
5 | B1 |  | 146 | 4.83 | 10.6 ± 5.06 | 379 | 0.8 ± 0.2 | 5.44 | 36.9 | blood glucose lowering in insulin tolerance test (result in words) (blood glucose): potent insulin receptor agonists; IC50 ([2]; read-out: Phosphorylation at Insulin Receptor Subtype B (IC50), Table 16B): 1.05 nM; in vitro phosphorylation activity at the insulin subtype A receptor (result in words) ([4]; FIGS. 21, 23): nearly equivalent to native hormone; IC50 ([4]; read-out: Phosphorylation at Insulin Receptor Subtype A (IC50), Table 16A): 3.12 nM
6 | B2 |  | 29.7 | 1.41 | 1.88 ± 0.52 | 23 | 0.39 ± 0.06 | 3.71 | 58.8 | EC50 [4, 10]: 0.385 nM
7 | B3 |  | 431 | 11.3 | 18.3 ± 10.3 | 269 | 0.97 ± 0.17 | 16.4 | 438 | EC50 [4, 10]: 1.25 nM
